Results taken from the supplement of paper PMC10567573.

B1: DVL3 (parent)
chain: FPELGYSYGGGSASSQHSEGSRSS

Variants of: B1
Test: protein stability index of a GFP-peptide fusion (GPS, HEK-293T) (PSI 1-6); higher = more stable
Details: c terminus: a fixed tail appended
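Also: lentivirally expressed fusions sorted by FACS into six bins by GFP to DsRed ratio, PSI derived from sequencing read proportions per bin multiplied by bin number.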

Variant | protein stability index
FPEPGYSYGGGSASSQHSEGSRSS | 3.24
FPEVGYSYGGGSASSQHSEGSRSS | 3.36
FPESGYSYGGGSASSQHSEGSRSS | 2.62
FPEWGYSYGGGSASSQHSEGSRSS | 1.76
FPEDGYSYGGGSASSQHSEGSRSS | 4.52
FPEHGYSYGGGSASSQHSEGSRSS | 3.33
FPEQGYSYGGGSASSQHSEGSRSS | 3.35
FPEAGYSYGGGSASSQHSEGSRSS | 3.47
FPEIGYSYGGGSASSQHSEGSRSS | 3.25
FPETGYSYGGGSASSQHSEGSRSS | 3.77
FPEEGYSYGGGSASSQHSEGSRSS | 4.31
FPENGYSYGGGSASSQHSEGSRSS | 2.35
FPEKGYSYGGGSASSQHSEGSRSS | 2.98
FPEGGYSYGGGSASSQHSEGSRSS | 1.8
FPERGYSYGGGSASSQHSEGSRSS | 2.84
FPEMGYSYGGGSASSQHSEGSRSS | 2.09
FPEFGYSYGGGSASSQHSEGSRSS | 3.16
FPEYGYSYGGGSASSQHSEGSRSS | 2.57
FPECGYSYGGGSASSQHSEGSRSS | 2.82
SPELGYSYGGGSASSQHSEGSRSS | 4.99
VPELGYSYGGGSASSQHSEGSRSS | 4.03
PPELGYSYGGGSASSQHSEGSRSS | 5.34
HPELGYSYGGGSASSQHSEGSRSS | 4.96
TPELGYSYGGGSASSQHSEGSRSS | 4.95

Variant | protein stability index
WPELGYSYGGGSASSQHSEGSRSS | 4.25
YPELGYSYGGGSASSQHSEGSRSS | 4
DPELGYSYGGGSASSQHSEGSRSS | 5.2
QPELGYSYGGGSASSQHSEGSRSS | 5.03
IPELGYSYGGGSASSQHSEGSRSS | 5.21
LPELGYSYGGGSASSQHSEGSRSS | 4.22
CPELGYSYGGGSASSQHSEGSRSS | 4.68
NPELGYSYGGGSASSQHSEGSRSS | 5.32
APELGYSYGGGSASSQHSEGSRSS | 5.09
MPELGYSYGGGSASSQHSEGSRSS | 4.38
RPELGYSYGGGSASSQHSEGSRSS | 4.86
GPELGYSYGGGSASSQHSEGSRSS | 4.62
EPELGYSYGGGSASSQHSEGSRSS | 5.18
KPELGYSYGGGSASSQHSEGSRSS | 4.89
FPELGDSYGGGSASSQHSEGSRSS | 5.2
FPELGLSYGGGSASSQHSEGSRSS | 3.53
FPELGASYGGGSASSQHSEGSRSS | 3.87
FPELGTSYGGGSASSQHSEGSRSS | 3.7
FPELGESYGGGSASSQHSEGSRSS | 4.76
FPELGSSYGGGSASSQHSEGSRSS | 3.98
FPELGFSYGGGSASSQHSEGSRSS | 2.32
FPELGRSYGGGSASSQHSEGSRSS | 3.5
FPELGNSYGGGSASSQHSEGSRSS | 4.58
FPELGHSYGGGSASSQHSEGSRSS | 3.77

Variant | protein stability index
FPELGVSYGGGSASSQHSEGSRSS | 3.75
FPELGGSYGGGSASSQHSEGSRSS | 3.81
FPELGMSYGGGSASSQHSEGSRSS | 3.71
FPELGWSYGGGSASSQHSEGSRSS | 1.66
FPELGPSYGGGSASSQHSEGSRSS | 3.76
FPELGKSYGGGSASSQHSEGSRSS | 3.37
FPELGCSYGGGSASSQHSEGSRSS | 3.4
FPELGQSYGGGSASSQHSEGSRSS | 4.3
FPELGISYGGGSASSQHSEGSRSS | 3.77
FPELIYSYGGGSASSQHSEGSRSS | 2.93
FPELAYSYGGGSASSQHSEGSRSS | 2.91
FPELCYSYGGGSASSQHSEGSRSS | 3.52
FPELWYSYGGGSASSQHSEGSRSS | 1.61
FPELDYSYGGGSASSQHSEGSRSS | 4.59
FPELSYSYGGGSASSQHSEGSRSS | 3.52
FPELQYSYGGGSASSQHSEGSRSS | 4.39
FPELLYSYGGGSASSQHSEGSRSS | 3.18
FPELEYSYGGGSASSQHSEGSRSS | 4.81
FPELRYSYGGGSASSQHSEGSRSS | 3.58
FPELNYSYGGGSASSQHSEGSRSS | 3.96
FPELMYSYGGGSASSQHSEGSRSS | 3.31
FPELTYSYGGGSASSQHSEGSRSS | 3.96
FPELYYSYGGGSASSQHSEGSRSS | 2.5
FPELKYSYGGGSASSQHSEGSRSS | 3.98

Variant | protein stability index
FPELPYSYGGGSASSQHSEGSRSS | 2.58
FPELHYSYGGGSASSQHSEGSRSS | 3.08
FPELFYSYGGGSASSQHSEGSRSS | 2.33
FPELVYSYGGGSASSQHSEGSRSS | 3.64
FWELGYSYGGGSASSQHSEGSRSS | 3.2
FAELGYSYGGGSASSQHSEGSRSS | 2.87
FNELGYSYGGGSASSQHSEGSRSS | 4.26
FQELGYSYGGGSASSQHSEGSRSS | 3.02
FIELGYSYGGGSASSQHSEGSRSS | 2.07
FVELGYSYGGGSASSQHSEGSRSS | 4.01
FTELGYSYGGGSASSQHSEGSRSS | 2.38
FGELGYSYGGGSASSQHSEGSRSS | 3.12
FHELGYSYGGGSASSQHSEGSRSS | 2.1
FMELGYSYGGGSASSQHSEGSRSS | 3.96
FSELGYSYGGGSASSQHSEGSRSS | 3.34
FRELGYSYGGGSASSQHSEGSRSS | 4.09
FKELGYSYGGGSASSQHSEGSRSS | 4.49
FCELGYSYGGGSASSQHSEGSRSS | 1.99
FEELGYSYGGGSASSQHSEGSRSS | 4.66
FLELGYSYGGGSASSQHSEGSRSS | 2.86
FDELGYSYGGGSASSQHSEGSRSS | 5.09
FFELGYSYGGGSASSQHSEGSRSS | 3.37
